From PMC7608914, “Bridging of nucleosome-proximal DNA double-strand breaks by PARP2 enhances its interaction with HPF1” come the findings set out here.

Holding throughout (details): protein: recombinant; (HisTrap purified); label: 6-FAM on 5' end of bottom strand; blunt
The target of series [1] is T1, PARP2-QFRD (Homo sapiens, UniProt Q9UGN5-2 1-570, Q112R;F113D). The series can be described thus: fluorescence polarization; 50 mM NaCl, 1 mM MgCl2; Hill 0.9; FP/FRET: 50 mM Tris-HCl pH 8, 50 mM NaCl, 1 mM MgCl2, 0.1 mM EDTA, 0.1 mM TCEP, 0.01% NP-40, temperature not stated; EMSA: 20 mM Tris pH 7.5, 1 mM EDTA, 1 mM DTT, 4 C. For orientation: Fluorescence polarisation rises when a labelled molecule tumbles more slowly, as on binding a larger partner.

The target in series [2] is T1, PARP2-QFRD. The series can be described thus: fluorescence polarization; 60 mM KCl, 8 mM MgCl2; FP/FRET: 50 mM Tris-HCl pH 8, 50 mM NaCl, 1 mM MgCl2, 0.1 mM EDTA, 0.1 mM TCEP, 0.01% NP-40, temperature not stated; EMSA: 20 mM Tris pH 7.5, 1 mM EDTA, 1 mM DTT, 4 C.
Series [3] has as its target T2, PARP2-WT (Homo sapiens, UniProt Q9UGN5-2 1-570). The series is described as above.
In series [4] the target is T2, PARP2-WT. As to the kind of experiment: fluorescence polarization; 50 mM NaCl, 1 mM MgCl2; Hill 1.2; FP/FRET: 50 mM Tris-HCl pH 8, 50 mM NaCl, 1 mM MgCl2, 0.1 mM EDTA, 0.1 mM TCEP, 0.01% NP-40, temperature not stated; EMSA: 20 mM Tris pH 7.5, 1 mM EDTA, 1 mM DTT, 4 C.

B1: p18mer_fluorescein (dsDNA)
DNA 1: GGGTTGCGGCCGCTTGGG
DNA 2: CCCAAGCGGCCGCAACCC
modifications: 5'-phosphate on top strand
Take B1: the Kd in the series with PARP2-QFRD [1] was 17.1 ± 1.8 nM; with PARP2-QFRD [2] it was around 240 nM; with PARP2-WT [3], around 240 nM; in the series with PARP2-WT [4] it was 11.1 ± 0.4 nM.

The Kd is a measure of binding affinity in units of concentration.
